Test: yeast display, Sf9 membrane polyspecificity reagent, FACS + sequencing; frameworks hold sequencing errors
Procedure, shortened: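 Sorting gates, low and high (top ~1%), were placed on anti-HA fluorescence to track expression and on streptavidin fluorescence to track reagent binding. A clone's polyreactivity label is taken from the gate it came out of. The reagent was 10% biotinylated, detergent-solubilized Sf9 membrane, applied for 1 hour at 4 °C to galactose-induced yeast display cells.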

Sequence | polyreactivity (PSR sort gate)
QVQLVESGGGLVQAGGSLRLSCAASGRTFQYNAMGWYRLAPGKERELVAAISSGGSTYYADSVKGRFSISRDNAKNTVYLQMNSLKPEDTAVYYCATYLAEYGYWGQGTQVTVSS | high polyreactivity
QVQLVESGGGLVQAGGSLRLSCAASGRTFQYNAMGWYRQAPGKERELVAAISSYGGSTYYADSVKGRFTISRDNAKNTVYLQMNSLKPEDTAVYYCNAYSQSWNFYGDGDDWGQGTQVTVSS | low polyreactivity
QVQLVESGGGLVQAGGSLRLSCAASGRTFQYNAMGWYRQAPGKERELVAAISWSDGITYYADSVKGSFTISRDNAKNTVYLQMNSLKPEDTAVYYCAAEGYGLSYYFPYDFWGQGTQVTVSS | high polyreactivity
QVQLVESGGGLVQAGGSLRLSCAASGRTFQYNAMGWYRQAPGKQWELVAAISSSGGSTYYADSVKGRFTISRDNAKITVYLKMNSLKPEDTAVYYCNAYSQSWNFYGDGDYWGQGTQVTVSS | low polyreactivity
QVQLVESGGGLVQAGGSLRLSCAASGRTFQYYAMGWYRQAPGKERELGAAISGIGTSTSYADSVKGRFTISRDNAKNTVYLQMNSLKPEDTAVYYCAARLLVPGSPWYTNYYWGQGTQVTVSS | low polyreactivity
QVQLVESGGGLVQAGGSLRLSCAASGRTFQYYAMGWYRQAPGKERELVAAISWSGGSTYYADSVKGRFTISRDNAKNTVYLQMNSLKPEVTAVYYCAASFRGQIVGYWGQGTQVTVSS | high polyreactivity
QVQLVESGGGLVQAGGSLRLSCAASGRTFQYYAMGWYRQAPGKERELVAAITWTGGSTYYADSVKGRFTISRDNAKNTVYLQKNSLKPEDTAVYYCIARYKTLGSQSRSGPGGKYGYWGQGTQVTVSS | high polyreactivity
QVQLVESGGGLVQAGGSLRLSCAASGRTFQYYTMGWYRQAPGKERELVAAIRRGGSTYYADSVKGRFTISRDNAKNTVYLEMNSLKPEDTAVYYCAALYAFSLTARGMEYWGQGTQVTVSS | high polyreactivity
QVQLVESGGGLVQAGGSLRLSCAASGRTFRANAMGWYRTAPGKEMELVAAISQRGGNTYYADSVKGRFTISRDNAKYTVYLQMNSLKPEDTAVYYCAADITTYRRGRYEYEFWGQGTQVTVSS | high polyreactivity
QVQLVESGGGLVQAGGSLRLSCAASGRTFRDNAMGWYRQAPGKERELVAVITVDSSSTYYADSVKGRFTISRDNAKNTVYLQMNSLKPEDTAVYYCAAELYYFWFDYWGQGTQVTVSS | low polyreactivity
QVQLVESGGGLVQAGGSLRLSCAASGRTFRDYVMGWYRPAPGKERELVAAISTRGASTYYADSVKGRFTISRDNAKNTVYLQMNSLKPEDTAVYYCAARSTRRGNEYDYWGQGTQVTVSS | high polyreactivity
QVQLVESGGGLVQAGGSLRLSCAASGRTFRFNAMGWYRQAPGKERELVAAISSSGDSTYYADSVKGRFTISRDNAKNTVYLQMNSLKPEDTAVYYCAVRSRTPRAYYYWGQGTQVTVSS | low polyreactivity
QVQLVESGGGLVQAGGSLRLSCAASGRTFRFYAMGCYRQAPGKERELVAAINYGGGNTYYADSVKGRFTISRDNAKNTVYLQMNILKPEDTAVYYCAAQYYYRARWFPYDYWGQGTQVTVSS | high polyreactivity
QVQLVESGGGLVQAGGSLRLSCAASGRTFRFYAMGWYRQAPGKEREFVAAISRCVGSTYYADSVKGRFTISRDNAKNNVYLQMNSLKPEDTAVYYCNADYRSRYVEYDYWGQGTQVTVSS | high polyreactivity
QVQLVESGGGLVQAGGSLRLSCAASGRTFRFYAMGWYRQAPGKEREFVASISRGGITYYADSVKGRFTISRDNAKNTVYLQMNSLKPEDTAVYYCAAGYPVLLERYSSFGGYYYWGHGTQVTVSS | high polyreactivity
QVQLVESGGGLVQAGGSLRLSCAASGRTFRFYAMGWYRQAPGKERELVAAIRWSGGSTYYADSVKGRFTISRDNAKNTVYLQMNSLKPEETAVYYCAAARWSQYRTWMNYWGQGTQVTVSS | high polyreactivity
QVQLVESGGGLVQAGGSLRLSCAASGRTFRGNAMGWYRQAPGKERELVAAINWGVGSTYYADSVKGRFTISRDNAKNTVYLQMNSLKPEDTAVYYCATRSYRGRDGFGYWGQGTQVTVSS | high polyreactivity
QVQLVESGGGLVQAGGSLRLSCAASGRTFRGNAMGWYRQAPGKERELVAAITSSGGGTYYADSVKGRFTISRDNAKNTVYLQMYSLKPEDTAVYYCAAEYRDGYRFSYDYWGQGTQVTVSS | low polyreactivity
QVQLVESGGGLVQAGGSLRLSCAASGRTFRGNDMGWYRQAPGKERELVAAISWSGGGTYYADSVKGRFTISRDNAKNTVYLQMNSLKPEDTAVYYCAADLPHFRYYYWGQGTQVTVSS | low polyreactivity
QVQLVESGGGLVQAGGSLRLSCAASGRTFRGYAMGWYRQAPGKERELVAAINFSAGITYYADSVKGRFTISRDNAKNTVYLQMNSLKPEDTAVYYCAAEPEWWWRGYGYWGQGTLVTVSS | low polyreactivity
QVQLVESGGGLVQAGGSLRLSCAASGRTFRHNDMGWYRQAPGKERELVAAISYSGGSTHYADSVKGRFTISRDNAKNTVYLQMNSLKPEDTAVYYCNRYSYDSHFLYPFRGHDYWGQGTQVTVSS | low polyreactivity
QVQLVESGGGLVQAGGSLRLSCAASGRTFRHNTMGWYRQAPGKEREFVAVITTSGGSTYYADSVKGRFTISRDNAKNTVYLQMNSMKPEDTAVYYCNAKYHLSRSTYYYWGQGTQVTVSS | high polyreactivity

Sequence | polyreactivity (PSR sort gate)
QVQLVESGGGLVQAGGSLRLSCAASGRTFRHYAMGWYRQAPGKDRELVAAISGSGGRTYYADSVKGRFTISRDNAKNTVYLQMNSLKPEDTAVYYCATRHTTRFYWGQGTQVTVSS | high polyreactivity
QVQLVESGGGLVQAGGSLRLSCAASGRTFRHYAMGWYRQAPGKERELVAAISGSGGRTYYADSVKGRFTISRDNAKNTVYLQMNSLKPEDTAVYYCNAYTWTYGEYEYWGQGTQVTVSS | high polyreactivity
QVQLVESGGGLVQAGGSLRLSCAASGRTFRIYAMGWYRQAPGKERELVAAIRWSGGTTYYADSVKGRFTISRDNAKNTVYLQRNSLKPEDTAVYYCAADSTNRYDYWGQGTQVTVSS | high polyreactivity
QVQLVESGGGLVQAGGSLRLSCAASGRTFRKYAMGWYRQAPGKEMELVAGITSIGGRTYYADSVKGRFTISRDNAKNTVYLQMNSLKPEDTAVYYCAADSIGRKNWSLHSNYWGQGTQVTVSS | low polyreactivity
QVQLVESGGGLVQAGGSLRLSCAASGRTFRKYAMGWYRQAPGKERELVAGITSIGGRTYYADSVKGRFTISRDNAKNTVYLQMNSLKPEDTAVYYCAAEPYGGGVKHSAYDYCGQGTQVTVSS | low polyreactivity
QVQLVESGGGLVQAGGSLRLSCAASGRTFRKYTMGWYRQAPGKERELVAAITLSGGSTYYADSVKGRFTISRDNAKNTVYLQMNSLKPEDTAVYYCAARYNRGAFDYWGQGTQVTVSS | high polyreactivity
QVQLVESGGGLVQAGGSLRLSCAASGRTFRLFAMGWYRQAPGKERELVAAIRSGGNTNYADSVKGRFTISRDNAKNTVYLQMNSLKPEDTAVYYCAATTYVVASRYVGSLGDDYWGHGTQVTVSS | high polyreactivity
QVQLVESGGGLVQAGGSLRLSCAASGRTFRLYAMGWHRQAPGKERELVAAITRGGRTNYADSVKGRFTISRDNAKNTVYLQMNSLKPEDTAVYYCAARYVERHTDYYYWGQGTQVTVSS | low polyreactivity
QVQLVESGGGLVQAGGSLRLSCAASGRTFRLYAMGWYRQAHGKERELVARISRGGSTYYADSVKGRFTISRDNAKNTVYLQMNSLKPEDTAVYYCAAVAYALGFASKEDYWGQGTQVTVSS | high polyreactivity
QVQLVESGGGLVQAGGSLRLSCAASGRTFRLYAMGWYRQAPGKERALVAAITGVGSTNYADSVKGRFTISRDNAKNTVYLQMNSLKPEDTAVYYCAAYYWSQVLIQGYYSWGQGTQVTVSS | high polyreactivity
QVQLVESGGGLVQAGGSLRLSCAASGRTFRLYAMGWYRQAPGKERELVAAITRGGRTNYADSVKGRFTISRDNAKNTVYLQMNSLKPEDPAVYYCAARYVERHTDYYYWGQGTQVTVSS | low polyreactivity
QVQLVESGGGLVQAGGSLRLSCAASGRTFRNNAMGWYRQAPGKERELVASISKSGGRTYYADSVKGRFTISRDNAKNTVYLQMNSLKPEDTAVYYCAAYRIHVYPAGLSWQYYYELDYWGQGTQVTVSS | high polyreactivity
QVQLVESGGGLVQAGGSLRLSCAASGRTFRNYAMGWYRQAPGKERELVAGITYSGGSTFYADSVKGRFTISRDNAKNTVYLQMNSLKPEDTAVYYCAAVYVQYYWLGRSRGLDYWGQGTQVTVSS | high polyreactivity
QVQLVESGGGLVQAGGSLRLSCAASGRTFRPNAMGWYRQAPGKERELVASITRRGGTTYYADSVKGRFTNSRDNAKNTVYLQMNSLKPEDTAFYYCIGPRGYSSTRNGYWGQGTQVTVSS | high polyreactivity
QVQLVESGGGLVQAGGSLRLSCAASGRTFRPYAMGWYIQAPGKERELVAAIDSSGTSTYYADSVKGRFTISRDNAKNTVYLQMNSLKPEDTAVYYCAKAWPDHWYSRYDYWGQGTQVTVSS | low polyreactivity
QVQLVESGGGLVQAGGSLRLSCAASGRTFRPYAMGWYRQAPGKERELVAAIDSSGTSTYYADSVKGRFTISRDNAKNTVYLQMNCLKPEDTAVYYCNTSLKRRRLRFNYWGQGTQVTVSS | low polyreactivity
QVQLVESGGGLVQAGGSLRLSCAASGRTFRPYAMGWYRQAPGTERELVARITSGGGRTYYADSVKGRFTISRDNAKNTVYLQMNSLKPEDNAVYYCNKAIYSLYRDGYTNFDYWGQGTQVTVSS | high polyreactivity
QVQLVESGGGLVQAGGSLRLSCAASGRTFRPYPMGWYRQAPGKERELVAAITRSGGSTYYADSVKGRFTISRDNAKNTVYLQMNSLKPEDTAVYYCAAYNTYSDTYDYWGQGTQVTVSS | low polyreactivity
QVQLVESGGGLVQAGGSLRLSCAASGRTFRRNAMGWYRQAPGKERELVADISNGDSTKYADSVKGRFTISRDNAKNTVYLQMNSLKPEDTAVYYCNAQRYRVVVYNSHGWQTRNYWGQGTQVTVSS | low polyreactivity
QVQLVESGGGLVQAGGSLRLSCAASGRTFRRSAMGWYRQAPGKEREFVAAISVSGDSTYADSVKGRFTISRDNAKNTVYLQMNSLKPEDTAVYYCAAVYWYCGWKVDYWGQGTQVTLSS | low polyreactivity
QVQLVESGGGLVQAGGSLRLSCAASGRTFRRYAMGWYRQAPGKERELVAAISSSSGTTYYADSVKGRFTISRDNEKNTDYLQMNSLKPEDTAVYYCAAYSRYTTRQYDYWGQGTQVTVSS | high polyreactivity
